Experimental data reported in article PMC3597468 (Journal of controlled release : official journal of the …, 2012).

Biological target: the molecule itself
Assay: cross-linking

B1: Catalase, from bovine liver (enzyme, UniProt P00432 1-527, looked up)
chain: MADNRDPASDQMKHWKEQRAAQKPDVLTTGGGNPVGDKLNSLTVGPRGPLLVQDVVFTDEMAHFDRERIPERVVHAKGAGAFGYFEVTHDITRYSKAKVFEHIGKRTPIAVRFSTVAGESGSADTVRDPRGFAVKFYTEDGNWDLVGNNTPIFFIRDALLFPSFIHSQKRNPQTHLKDPDMVWDFWSLRPESLHQVSFLFSDRGIPDGHRHMNGYGSHTFKLVNANGEAVYCKFHYKTDQGIKNLSVEDAARLAHEDPDYGLRDLFNAIATGNYPSWTLYIQVMTFSEAEIFPFNPFDLTKVWPHGDYPLIPVGKLVLNRNPVNYFAEVEQLAFDPSNMPPGIEPSPDKMLQGRLFAYPDTHRHRLGPNYLQIPVNCPYRARVANYQRDGPMCMMDNQGGAPNYYPNSFSAPEHQPSALEHRTHFSGDVQRFNSANDDNVTQVRTFYLKVLNEEQRKRLCENIAGHLKDAQLFIQKKAVKNFSDVHPEYGSRIQALLDKYNEEKPKNAVHTYVQHGSHLSAREKANL
  binding result: binds
